Measurements as given in PMC7312664, “Beneficial Effects of Inflammatory Cytokine-Targeting Aptamers in an Animal Model of Chronic Prostatitis”.

Biological target: IL-1b (human) (human, UniProt P01584 117-269)
Experiment: plate binding assay / ELISA with aptamer replacing primary antibody; dose-dependent; protein fixed in plate, n = 3; buffer, salt, pH and temperature not given in the material

IL-1b (human), sequence (P01584 117-269): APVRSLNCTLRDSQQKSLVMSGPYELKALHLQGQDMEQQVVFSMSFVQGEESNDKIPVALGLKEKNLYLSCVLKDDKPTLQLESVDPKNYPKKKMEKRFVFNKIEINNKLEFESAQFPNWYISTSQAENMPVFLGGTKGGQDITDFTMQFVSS

## GAAGTATAGCGCAATAAACTCACCTCCCAC (ssDNA) [AptIL-1b]
  binding result: binds
